# Laboratory results reported in patent US20180155451A1 (published 2018).
# B1: heterodimerized antibody GpH7-A5/GpH7-B3 variant H268_13S/GpL16-k0 (antibody, human IgG1, kappa)
# heavy 1: not shown
# heavy 2: not shown
# light: DIVMTQSPLSLPVTPGEPASISCQASESLVHSNRNTYLHWYLQKPGQSPQLLIYKVSNRFSGVPDRFSGSGSGTDFTLKISRVEAEDVGVYYCSQNTHVPPTFGQGTKVEIERTVAAPSVFIFPPSDEQLKSGTASVVCLLNNFYPREAKVQWKVDNALQSGNSQESVTEQDSKDSTYSLSSTLTLSKADYEKHKVYACEVTHQGLSSPVTKSFNRGEC
# notes: He Ab: anti-glypican-3 IgG1, alteration in one H chain only; also called He Ab
# B2: heterodimerized antibody GpH7-A5/GpH7-B3 variant N325_07I/GpL16-k0 (antibody, human IgG1, kappa)
# heavy 1: not shown
# heavy 2: not shown
# light: B1 light
# notes: as for B1
# B3: heterodimerized antibody GpH7-A5/GpH7-B3 variant P238_04F/GpL16-k0 (antibody, human IgG1, kappa)
# heavy 1: not shown
# heavy 2: not shown
# light: B1 light
# notes: as for B1
# B4: heterodimerized antibody GpH7-A5/GpH7-B3 variant K326_10E/GpL16-k0 (antibody, human IgG1, kappa)
# heavy 1: not shown
# heavy 2: not shown
# light: B1 light
# notes: as for B1
# B5: heterodimerized antibody GpH7-A5/GpH7-B3 variant L328_04F/GpL16-k0 (antibody, human IgG1, kappa)
# heavy 1: not shown
# heavy 2: not shown
# light: B1 light
# notes: as for B1
# B6: heterodimerized antibody GpH7-A5/GpH7-B3 variant L328_09D/GpL16-k0 (antibody, human IgG1, kappa)
# heavy 1: not shown
# heavy 2: not shown
# light: B1 light
# notes: as for B1
# B7: heterodimerized antibody GpH7-A5/GpH7-B3 variant K326_08L/GpL16-k0 (antibody, human IgG1, kappa)
# heavy 1: not shown
# heavy 2: not shown
# light: B1 light
# notes: as for B1
# B8: heterodimerized antibody GpH7-A5/GpH7-B3 variant K326_07I/GpL16-k0 (antibody, human IgG1, kappa)
# heavy 1: not shown
# heavy 2: not shown
# light: B1 light
# notes: as for B1
# B9: heterodimerized antibody GpH7-A5/GpH7-B3 variant N325_06M/GpL16-k0 (antibody, human IgG1, kappa)
# heavy 1: not shown
# heavy 2: not shown
# light: B1 light
# notes: as for B1
# B10: heterodimerized antibody GpH7-A5/GpH7-B3 variant L328_07I/GpL16-k0 (antibody, human IgG1, kappa)
# heavy 1: not shown
# heavy 2: not shown
# light: B1 light
# notes: as for B1
# B11: heterodimerized antibody GpH7-A5/GpH7-B3 variant N325_08L/GpL16-k0 (antibody, human IgG1, kappa)
# heavy 1: not shown
# heavy 2: not shown
# light: B1 light
# notes: as for B1
# B12: heterodimerized antibody GpH7-A5/GpH7-B3 variant L328_10E/GpL16-k0 (antibody, human IgG1, kappa)
# heavy 1: not shown
# heavy 2: not shown
# light: B1 light
# notes: as for B1
# B13: heterodimerized antibody GpH7-A5/GpH7-B3 variant N325_20W/GpL16-k0 (antibody, human IgG1, kappa)
# heavy 1: not shown
# heavy 2: not shown
# light: B1 light
# notes: as for B1
# B14: heterodimerized antibody GpH7-A5/GpH7-B3 variant K326_09D/GpL16-k0 (antibody, human IgG1, kappa)
# heavy 1: not shown
# heavy 2: not shown
# light: B1 light
# notes: as for B1
# Target: T1, FcγRIIa R (FcγRIIa, allotype R, Arg at position 131), extracellular domain with C-terminal His tag (human, UniProt P12318 34-217)
# T1 construct: extracellular domain; soluble receptor used as Biacore analyte; also called 2aR; FcgRIIa R
# T1 sequence (looked up): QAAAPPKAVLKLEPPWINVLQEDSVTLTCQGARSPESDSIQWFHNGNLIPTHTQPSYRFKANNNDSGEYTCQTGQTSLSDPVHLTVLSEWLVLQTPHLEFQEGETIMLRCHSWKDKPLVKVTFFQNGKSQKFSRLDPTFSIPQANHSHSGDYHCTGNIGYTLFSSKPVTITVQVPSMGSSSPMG
# Assay: Biacore SPR; He/Con_2aR divided by He/Con_2b (FcγRIIb)
# Description: The heterodimerized antibodies He Abs in which one of the H chains was introduced with an alteration were assayed for their binding activities to each activating FcγR and inhibitory FcγR according to the method described in Example 4. […] The activating FcγRs in FIGS. 26, 27, 28, and 29 are FcγRIa, FcγRIIa (R), FcγRIIa (H), and FcγRIIIa, respectively.
# Analysis of interaction between objective antibody and the FcγR was carried out using Biacore T100 (GE Healthcare). HBS-EP+ (GE Healthcare) was used as the running buffer, and the measurement temperature was set to 25° C. Chips produced by immobilizing the antigen peptide by the amine coupling method to a Series S Sencor Chip CM5 (GE Healthcare), or alternatively, chips produced by allowing preliminarily biotinylated antigen peptides to interact with and immobilize onto a Series S Sensor Chip SA (certified) (GE Healthcare) were used. Antibodies of interest were captured onto an antigen peptide-immobilized chip, and allowed to interact to each FcγR diluted with running buffer. To regenerate and repeatedly use the chip, the antibodies captured on the chip were washed off by reacting 10 mM glycine-HCl, pH 1.5.
row,Binder,IIaR/IIb (He_2aR/2b)
1,B1,0.8
2,B2,0.78
3,B3,0.56
4,B4,0.74
5,B5,0.63
6,B6,0.6
7,B7,0.77
8,B8,0.74
9,B9,0.7
10,B10,0.78
11,B11,0.73
12,B12,0.61
13,B13,0.79
14,B14,0.77

# Target: T2, FcγRIIb, extracellular domain with C-terminal His tag (human, UniProt P31994 43-217)
# T2 construct: extracellular domain; soluble receptor used as Biacore analyte; also called 2b; FcgRIIb
# T2 sequence (looked up): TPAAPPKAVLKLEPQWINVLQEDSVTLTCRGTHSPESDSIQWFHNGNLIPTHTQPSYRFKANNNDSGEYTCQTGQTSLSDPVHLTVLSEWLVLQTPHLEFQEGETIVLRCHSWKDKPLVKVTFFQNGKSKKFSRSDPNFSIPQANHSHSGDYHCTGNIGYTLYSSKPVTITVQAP
# Assay: Biacore SPR; binding relative to GpH7-A5/GpH7-B3/GpL16-k0 (=100)
row,Binder,He/Con_2b (IIb binding)
1,B1,160 % of control
2,B2,171 % of control
3,B3,312 % of control
4,B4,200 % of control
5,B5,219 % of control
6,B6,199 % of control
7,B7,177 % of control
8,B8,199 % of control
9,B9,217 % of control
10,B10,160 % of control
11,B11,197 % of control
12,B12,172 % of control
13,B13,169 % of control
14,B14,193 % of control

# Target: T1, FcγRIIa R (FcγRIIa, allotype R, Arg at …)
# Assay: as above
row,Binder,He/Con_2aR (IIaR binding)
1,B1,127 % of control
2,B2,133 % of control
3,B3,174 % of control
4,B4,148 % of control
5,B5,138 % of control
6,B6,119 % of control
7,B7,137 % of control
8,B8,147 % of control
9,B9,152 % of control
10,B10,124 % of control
11,B11,144 % of control
12,B12,105 % of control
13,B13,134 % of control
14,B14,148 % of control
